We go through 1 molecule from article PMC9182133, “Cholesterol Dependent Activity of the Adenosine A2A Receptor Is Modulated via the Cholesterol Consensus Motif” (Molecules, 2022).

Assay [1] has as its target T1, wild-type human adenosine A2A receptor with rho-1d4 tag (pITy4-A2AR-1d4) (human, UniProt P29274 1-412).
T1 construct: adenosine A2A receptor, human, wild type; the abstract calls it full length; also called WT A2AR; source: S. cerevisiae BJ5464 (pITy4, galactose induced), purified (Rho-1d4 resin, eluted with Rho-1d4 peptide) in DDM/CHAPS/CHS
The assay is described as follows: SPR; His6-Gαs (1 µM injected) captured on a high-capacity Ni-NTA chip; purified receptor injected at 296 (legend: 267), 445 or 667 nM for 3 min, dissociation 5 min; 20 °C, 25 µL/min; 50 mM Tris-HCl pH 8, 0.1% DDM, 0.1% CHAPS, 0.02% CHS; channel with denatured Gαs subtracted; 1-1 binding model, fits of three biological replicates averaged. As to conditions: both partners purified.

Assay [2] concerns the target T2, A2AR S47A variant with rho-1d4 tag (human, UniProt P29274 1-412, S47A).
T2 construct: adenosine A2A receptor, human, with S47A (Ballesteros-Weinstein 2.45) in the cholesterol consensus motif; source: S. cerevisiae BJ5464 (pITy4, galactose induced), purified (Rho-1d4 resin, eluted with Rho-1d4 peptide) in DDM/CHAPS/CHS
The assay is described as above. As to conditions: both partners purified.

T2 sequence (P29274 whole entry S47A): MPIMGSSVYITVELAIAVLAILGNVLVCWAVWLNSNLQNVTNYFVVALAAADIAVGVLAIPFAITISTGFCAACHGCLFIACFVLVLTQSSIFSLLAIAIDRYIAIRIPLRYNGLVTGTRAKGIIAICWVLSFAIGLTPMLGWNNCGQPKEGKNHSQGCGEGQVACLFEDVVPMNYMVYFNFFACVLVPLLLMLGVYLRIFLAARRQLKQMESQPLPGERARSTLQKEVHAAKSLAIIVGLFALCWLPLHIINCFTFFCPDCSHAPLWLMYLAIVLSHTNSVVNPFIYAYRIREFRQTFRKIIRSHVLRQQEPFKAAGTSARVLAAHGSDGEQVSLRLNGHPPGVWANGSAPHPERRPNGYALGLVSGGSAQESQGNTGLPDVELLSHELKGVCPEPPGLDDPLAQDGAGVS
T1 sequence (P29274 whole entry): as the sequence (P29274 whole entry S47A) above, with A47S counted along it

B1: Gαs protein (pET15b-Gαs, His6 tagged) (natural protein, UniProt P63092 1-394, looked up)
chain: MGCLGNSKTEDQRNEEKAQREANKKIEKQLQKDKQVYRATHRLLLLGAGESGKSTIVKQMRILHVNGFNGEGGEEDPQAARSNSDGEKATKVQDIKNNLKEAIETIVAAMSNLVPPVELANPENQFRVDYILSVMNVPDFDFPPEFYEHAKALWEDEGVRACYERSNEYQLIDCAQYFLDKIDVIKQADYVPSDQDLLRCRVLTSGIFETKFQVDKVNFHMFDVGGQRDERRKWIQCFNDVTAIIFVVASSSYNMVIREDNQTNRLQEALNLFKSIWNNRWLRTISVILFLNKQDLLAEKVLAGKSKIEDYFPEFARYTTPEDATPEPGEDPRVTRAKYFIRDEFLRISTASGDGRHYCYPHFTCAVDTENIRRVFNDCRDIIQRMHLRQYELL
notes: G protein alpha-s subunit; also called G protein; source: E. coli Rosetta (DE3), purified (Ni-NTA resin)
With B1, in assay [1], the equilibrium dissociation constant (Kd) – broadly, the free concentration of one partner at which half of the binding sites on the other are occupied at equilibrium, for simple one-to-one binding – is 74 nM; the koff (usually the rate constant with which the complex falls apart) turned out to be 0.00066 s⁻¹; the on-rate (kon) (in general, a measure of how fast the partners come together) came out at 12700 ± 649 M⁻¹ s⁻¹. In assay [2], this molecule had a Kd of 146 nM, a dissociation rate constant (koff) of 0.00122 s⁻¹ and a kon of 18700 ± 2900 M⁻¹ s⁻¹.
